Test results published in patent US20140112931A1 (UNIVERSITE DE MONTPELLIER 1, published 2014).

Tests used:
[1] = biological target: T1, HER2 on HER2- or HER2/HER3-transfected NIH 3T3 cells (UniProt P04626 23-1255, limits assumed); test: flow cytometry on HER2-transfected NIH 3T3 cells
T1 construct: whole, on cells

[2] = biological target: T2, EGFR on EGFR-transfected NIH 3T3 cells (UniProt P00533 25-1210, limits assumed); test: flow cytometry on EGFR-transfected NIH 3T3 cells
T2 construct: whole, on cells; also called ErbB1; HER1

[3] = biological target: T3, HER3 receptor on cells (HER3- and HER2/HER3-transfected NIH 3T3 cells, SKBR3 cells, BxPC3 cells) (human, UniProt P21860 20-1342); test: flow cytometry on HER3-transfected NIH 3T3 cells
T3 construct: whole, on cells

[4] = biological target: T3, HER3 receptor on cells (HER3- and …); test: flow cytometry on HER2/HER3-transfected NIH 3T3 cells
[5] = biological target: T3, HER3 receptor on cells (HER3- and …); test: FACS competition on SKBR3 cells: heregulin against HER3-specific positive control antibody B
Method: (§1) After one washing with PBS-1% BSA, anti-HER3 mAbs, at concentration giving 50% maximal binding, were added to each well for 1 h on ice.

[6] = biological target: T3, HER3 receptor on cells (HER3- and …); test: flow cytometry competition on SKBR3 cells; HRG varied; competitor: antibody 12H8-B11 at the concentration giving 50% maximal binding; antibody 12H8-B11 as the displaced probe, SKBR3 cells
Method: as §1

[7] = biological target: T4, human HER3-Fc protein (R&D system) (human, UniProt P21860 20-643); test: ELISA, HER3-Fc coated at 250 ng/ml
T4 construct: Bought (R&D system); called soluble HER3-Fc; also called soluble HER3-Fc; HER3-Fc antigen; not shown: Fc part

| Binder | geometric mean (flow cytometry) [1] | geometric mean (flow cytometry) [2] | geometric mean (flow cytometry) [3] | geometric mean (flow cytometry) [4] | IC50 (read off the curve) [5] [nM] | IC50 [6] [nM] | EC50 [7] [µg/mL] |
| --- | --- | --- | --- | --- | --- | --- | --- |
| anti-HER3 antibody Ab6 (Merrimack Pharmaceuticals) (antibody, V domains shown) VH: EVQLLESGGGLVQPGGSLRLSCAASGFTFSHYVMAWVRQAPGKGLEWVSSISSSGGWTLYADSVKGRFTISRDNSKNTLYLQMNSLRAEDTAVYYCTRGLKMATIFDYWGQGTLVTVSS VL: QSALTQPASVSGSPGQSITISCTGTSSDVGSYNVVSWYQQHPGKAPKLIIYEVSQRPSGVSNRFSGSKSGNTASLTISGLQTEDEADYYCCSYAGSSIFVIFGGGTKVTVL | 0.3 | 0.2 | 7.8 | 14.1 |  |  |  |
| anti-HER3 antibody U1-59 (Amgen/U3 Pharma-Daiichi Sankyo) (antibody, V domains shown) VH: QVQLQQWGAGLLKPSETLSLTCAVYGGSFSGYYWSWIRQPPGKGLEWIGEINHSGSTNYNPSLKSRVTISVETSKNQFSLKLSSVTAADTAVYYCARDKWTWYFDLWGRGTLVTVSS VL: not shown | 0.4 | 0.2 | 9.3 | 15.5 |  |  | ~0.2 |

Now from value to binder:

| geometric mean (flow cytometry) [1] | geometric mean (flow cytometry) [2] | geometric mean (flow cytometry) [3] | geometric mean (flow cytometry) [4] | IC50 (read off the curve) [5] [nM] | IC50 [6] [nM] | EC50 [7] [µg/mL] | Binder |
| --- | --- | --- | --- | --- | --- | --- | --- |
|  |  |  |  | ~2 | ~2.5 |  | heregulin (HRG) (ligand, UniProt Q02297-6 177-237, looked up, also called HRG ligand) SHLVKCAEKEKTFCVNGGECFMVKDLSNPSRYLCKCPNEFTGDRCQNYVMASFYKHLGIEF |
| 0.4 | 0.4 | 1.8 | 12.4 |  |  |  | murine anti-HER3 monoclonal antibody 9F7-F11 (antibody, V domains shown) VH: EVKLVESGGGLVQPGGSLKLSCAASGFTFSSYTMSWVRQTPEKRLEWVAYISDGGGVTYYPDTIKGRFTISRDNAKNTLYLQMSSLKSEDTAMYYCARDRYGLFAYWGQGTLVTVSA VL: DIVMTQSQKFMSTSVGDRVSITCKASQNVGIAVAWYQQKPGQSPKLLIYSASNRYTGVPDRFTGSGSGTDFTLTISNMQSEDLADYFCQQYSNYPYTFGGGTKLEIK |
